Changes are numbered by the printed parent chain.
B1: 227-1, recombinant human monoclonal IgG1 (antibody, V domains shown)
VH: EVQLVQSGAEVKMPGESLKISCEVSGYSFTSYWIGWVRQMPGKGLEWMGIIYPGDSDTRYSPSFQGQVTISADKSISTAYLQWSSLKASDTAMYYCTRSISRSGPGFSLSWFFDYWGQGTLVTVSS
VL: AIQLTQSPSSLSASVGDRVTITCRASQGISNALAWYQQKPGKAPKLLIYDASSLERGVPSRFSGSGFGTDFTLTISSLQPEDFAIYYCQQFNGFPNTFGQGTRVEIK
notes: source: Expi293 cells, transiently transfected with VH and VL plasmids, purified (Protein A)
B2: 857-2, recombinant human monoclonal IgG1 (antibody, V domains shown)
VH: EVQLVQSGEEVKKPGESLKISCKGSGYKFSSYWIGWVRQMPGKGLEWMGIIFPGDSDKRYSPSFQGQVTISADKSISTVYLQWSSLKASDTAMYYCARHITTHTYRGFFDFWGQGTLVTVSS
VL: AIQLTQSPSSLSASVGDRVTITCRASQDISSALAWYQQKPGKAPKLLIYDVSSLESGVPSRFSGSGSGTDFTLTISSLQPEDFATYYCQQFNGYPHRLTFGGGTKVEIK
notes: as for B1
B3: 221-5, recombinant human monoclonal IgG1 (antibody, V domains shown)
VH: EVQLVQSGAEVKKPGESLKISCKGSGYSFTSYWIGWVRQMPGKGLEWMGIIYPGDSDTRYSPSFQGQVTISADKSISTAYLQWSSLKASDTAMYYCARHLGIDYFFGMDVWGQGTTVTVSS
VL: EIVLTQSPATLSLSPGERATLSCRASQSVSSYLAWYQQKPGQAPRLLIYDASTRDTGIPARFSGSGSGTDFTLTISSLEPEDFAVYYCQHHSNWYTFGQGTKLEIK
notes: as for B1
B4: 221-20, recombinant human monoclonal IgG1 (antibody, V domains shown)
VH: EIQLVQSGTEVKKPGESLRISCRVSGYSFTNYWVAWVRQMPGKGLEWMGIIWPGDSDTRYSPSFQGQVTISADKSINTAYLQWSSLKASDTAVYYCARHLGIDYFFGLDVWGQGTTVTVSS
VL: B3 VL with T53S, D55A, H91L, K102N
notes: as for B1
B5: LA-2 IgG (antibody, V domains shown)
VH: QIQLVQSGPELKKPGETVKISCKASGYTFTDYSMYWVKQAPGKGLKRMGWINTETGEPTYADDFKGRFALSLDTSASTAYLHISNLKNEDTATYFCARGLDSWGQGTSVTVSS
VL: DIQMTQSPSSLSATLGGKVTITCKASQDINKYIAWYQHKPGKGPRLLIHYTSTLQPGNPSRFSGSGSGRDYSFSISNLEAEDIAIYYCLQYDNLQRTFGGGTKVEIK
notes: also called OspA ST 1-specific IgG mAb LA-2
B6: 221-11, recombinant human monoclonal IgG1 (antibody, V domains shown)
VH: EVQLVQSGAEVKKPGESLKISCQSSGYRFTIYWIGWVRQMPGKGLEWMGIIWPGDSDTRYSPSFQGQVTISADKSISTAYLQWSSLKASDTAMYYCVRGIGRYSNWFLDYWGQGTLVTVSS
VL: B1 VL with I29F, N31S, R56S, F67S, I85T, G93S, F94Y, N96L, Q100G, R103K
notes: as for B1
B7: 227-2, recombinant human monoclonal IgG1 (antibody, V domains shown)
VH: B1 VH with L4V, M13K, E23K, V24G, T97V, F107Y, S108I, T120S
VL: B1 VL
notes: as for B1
B8: 221-7, recombinant human monoclonal IgG1 (antibody, V domains shown)
VH: EVQLVQSGSEVKKPGESLKISCQVSGYSFTSYWIGWVRQMPGKGLERVGFIYPGDSDTRYSPSFQGQVTISADKSISTAYLQWSSLKASDTAMYYCARGILRYFDWFLDYWGQGTLVTVSS
VL: AIQLTQSPSSLSASVGDRVTITCRASQGISSGSAWYQQKPGKAPKLLIYDVSSLESGVPSRFSGSGSGTEFTLTISSLQPEDFATYYCQQFNSYLLTFGGGTKVEIK
notes: as for B1
B9: 223-5, recombinant human monoclonal IgG1 (antibody, V domains shown)
VH: EVQLVQSGAEVKKPGESLKISCKGSGYSLTSYWIGWVRQMPGKGLEWMGIIWPGDSDTRYSPSFQGQVTISADKSISTAYLQWSSLKASDTAMYYCARYVTVGAFDFWGQGTMVTVSS
VL: B8 VL with G32A, S33L, A43T, S67C, E70D, L78V, L96W, G100Q
notes: as for B1

molecular target: T1, OspA ST2 (B. afzelii PKo allele) on the B. burgdorferi HB19-R1 reporter strain (Borrelia afzelii PKo (OspA ST2), UniProt P0A3N7); experiment: flow cytometry on cells; live B. burgdorferi HB19-R1 reporter strains expressing OspA ST1-7, 10 µg/ml mAb, Alexa 647-labeled goat anti-human IgG; settings: one partner purified
T1 construct: OspA of B. afzelii PKo (ST2); source: B. burgdorferi HB19-R1 (lacks ospA), reporter plasmid, native ospAB promoter of B31, on live cells
T1 sequence (P0A3N7 17-273): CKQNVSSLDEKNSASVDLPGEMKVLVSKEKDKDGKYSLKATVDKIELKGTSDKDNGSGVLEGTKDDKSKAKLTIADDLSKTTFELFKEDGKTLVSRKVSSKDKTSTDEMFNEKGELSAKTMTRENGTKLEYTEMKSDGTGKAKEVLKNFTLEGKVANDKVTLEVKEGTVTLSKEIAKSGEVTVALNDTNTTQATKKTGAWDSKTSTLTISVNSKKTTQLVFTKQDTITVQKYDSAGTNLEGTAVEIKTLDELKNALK

| Binder | binding result | MFI |
| --- | --- | --- |
| B1 | binds | – |
| B2 | – | > 4000 |
| B3 | – | > 4000 |
| B4 | – | > 4000 |
| B5 | no binding (tested: 10 µg/ml) | – |
| B6 | binds | – |
| B7 | binds | – |

molecular target: OspA ST3 (B. garinii PBr allele) on the B. burgdorferi HB19-R1 reporter strain (Borrelia garinii PBr (OspA ST3), UniProt B8F1J0, strain); experiment: as above; settings: one partner purified

| Binder | binding result | MFI |
| --- | --- | --- |
| B1 | no binding | – |
| B2 | – | > 4000 |
| B3 | – | > 4000 |
| B4 | – | > 4000 |
| B5 | no binding (tested: 10 µg/ml) | – |

molecular target: T2, OspA ST1 (B. burgdorferi B31 allele) on the B. burgdorferi HB19-R1 reporter strain (Borrelia burgdorferi B31 (OspA ST1), UniProt P0CL66); experiment: as above; settings: one partner purified
T2 construct: OspA of B. burgdorferi B31 (ST1), lipoprotein on the cell surface; a second wild type ST1 plasmid with silent mutations was used beside the residue 107 mutants; same protein; also called HB19-R1 OspAST1 reporter; source: B. burgdorferi HB19-R1 (lacks ospA), reporter plasmid pGW217, native ospAB promoter, on live cells
T2 sequence (P0CL66 17-273): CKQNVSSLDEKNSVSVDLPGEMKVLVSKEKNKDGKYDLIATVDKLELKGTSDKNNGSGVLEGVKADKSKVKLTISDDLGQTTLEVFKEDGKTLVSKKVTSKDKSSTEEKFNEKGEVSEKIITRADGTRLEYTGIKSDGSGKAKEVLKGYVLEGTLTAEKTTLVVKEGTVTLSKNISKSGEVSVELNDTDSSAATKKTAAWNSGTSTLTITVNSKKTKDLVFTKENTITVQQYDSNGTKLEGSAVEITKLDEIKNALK

| Binder | MFI |
| --- | --- |
| B2 | > 4000 |
| B3 | > 4000 |
| B4 | > 4000 |
| B5 | > 7000 |

molecular target: T3, OspA ST4 (B. bavariensis PBi allele) on the B. burgdorferi HB19-R1 reporter strain (Borrelia bavariensis PBi (OspA ST4), UniProt Q6LBF1, strain); experiment: as above; settings: one partner purified
T3 construct: OspA of B. bavariensis PBi (ST4); source: B. burgdorferi HB19-R1 (lacks ospA), reporter plasmid, native ospAB promoter of B31, on live cells

| Binder | binding result | MFI |
| --- | --- | --- |
| B1 | binds | – |
| B2 | – | > 4000 |
| B3 | – | > 4000 |
| B4 | – | > 4000 |
| B5 | no binding (tested: 10 µg/ml) | – |
| B6 | binds | – |
| B7 | binds | – |

molecular target: T4, Recombinant non-lipidated OspA serotype 2 (Borrelia afzelii (OspA ST2; strain not …, UniProt P0A3N7); experiment: microsphere immunoassay (MIA); recombinant non-lipidated OspA ST 1-7 coupled to Magplex-C microspheres, serial dilutions of mAb, 1 x PBS, 2% BSA, pH 7.4, room temperature 1 hr, PE anti-human IgG Fc; settings: both partners purified
T4 construct: OspA serotype 2, non-lipidated; also called recombinant OspA ST2; ST 2; source: E. coli, purified; provided by Dr. Meredith Finn (Moderna)
T4 sequence (P0A3N7 17-273): as the sequence (P0A3N7 17-273) above

| Binder | binding result |
| --- | --- |
| B1 | binds |
| B6 | binds |
| B7 | binds |

molecular target: T5, Recombinant non-lipidated OspA serotype 4 (Borrelia bavariensis (OspA ST4; strain …, UniProt Q6LBF1, strain); experiment: as above; settings: both partners purified
T5 construct: OspA serotype 4, non-lipidated; also called recombinant OspA ST4; ST 4; source: E. coli, purified; provided by Dr. Meredith Finn (Moderna)

| Binder | binding result |
| --- | --- |
| B1 | binds |
| B6 | binds |
| B7 | binds |

molecular target: T6, Native OspA ST2 on B. afzelii Pko (Borrelia afzelii PKo (OspA ST2), UniProt P0A3N7); experiment: flow cytometry on cells; live Borrelia primary isolates with native OspA ST1-7, 10 µg/ml mAb, Alexa 647-labeled goat anti-human IgG; settings: one partner purified
T6 construct: native OspA (ST2) on the bacterial surface of the primary isolate; also called ST 2- B. afzelii Pko; source: endogenous, on live B. afzelii Pko
T6 sequence (P0A3N7 17-273): as above

| Binder | binding result |
| --- | --- |
| B5 | no binding (tested: 10 µg/ml) |

molecular target: T7, Native OspA ST4 on B. bavariensis PBi (Borrelia bavariensis PBi (OspA ST4), UniProt Q6LBF1, strain); experiment: as above; settings: one partner purified
T7 construct: native OspA (ST4) on the bacterial surface of the primary isolate; also called ST 4- B. bavariensis PBi; source: endogenous, on live B. bavariensis PBi

| Binder | binding result |
| --- | --- |
| B5 | no binding (tested: 10 µg/ml) |

molecular target: T8, Native OspA ST3 on B. garinii PBr (Borrelia garinii PBr (OspA ST3), UniProt B8F1J0, strain); experiment: as above; settings: one partner purified
T8 construct: native OspA (ST3) on the bacterial surface of the primary isolate; also called ST 3- B. garinii PBr; source: endogenous, on live B. garinii PBr

| Binder | binding result |
| --- | --- |
| B5 | no binding (tested: 10 µg/ml) |

molecular target: T9, Recombinant OspAST1 (residues 18–273) from B. burgdorferi B31 (Borrelia burgdorferi B31 (OspA ST1), UniProt P0CL66); experiment: BLI; Octet RED96e; mAb captured on AHC sensors (0.4 µg/mL, 5 min), dipped into non-lipidated OspA 21.58 nM to 0.089 nM (10 min), dissociation 30 min; 0.1% BSA in PBS, 0.01% Tween20; global 1:1 model; settings: both partners purified
T9 construct: source: tags removed with TEV protease; not shown: deca-histidine, N-terminal, cleaved; SUMO, N-terminal, cleaved
T9 sequence (P0CL66 18-273): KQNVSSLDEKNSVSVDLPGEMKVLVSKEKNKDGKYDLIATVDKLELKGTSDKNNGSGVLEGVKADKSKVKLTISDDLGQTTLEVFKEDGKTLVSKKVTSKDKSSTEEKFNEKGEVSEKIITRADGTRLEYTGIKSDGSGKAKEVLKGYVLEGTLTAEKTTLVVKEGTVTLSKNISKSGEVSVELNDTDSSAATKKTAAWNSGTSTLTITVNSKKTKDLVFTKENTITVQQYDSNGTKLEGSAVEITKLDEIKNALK

| Binder | Kd [nM] |
| --- | --- |
| B8 | 0.66 |
| B1 | 1.7 |
| B2 | 0.3 |
| B3 | 0.52 |
| B4 | 0.37 |
| B5 | 64 |
| B6 | 0.35 |
| B7 | 0.48 |
| B9 | 0.17 |
